Experiment [1] deals with T1, human TrkC expressed on CHO cells (TrkC/CHO, ThermoFisher K1515) (human, UniProt Q16288 32-839).
T1 construct: whole, on cells
Description: flow cytometry on TrkC/CHO cells, FITC goat anti-human Fc. The procedure:
(§1) CHO-K1 was used as a negative control. The binding of the humanized antibodies to the four cell lines was detected by flow cytometry.
(§2) The cells were cultured according to the manufacturer's instruction. The cells were harvested in the logarithmic growth phase, re-suspended in flow buffer (PBS+2% FBS, pH 7.4), and added into 96-well plate, 10^5 cells per well (50 µl). 50 µl of 100 µg/mL humanized anti-TrkA antibody was added, incubated at room temperature for 60 min, and centrifuged at 1200 rpm. The supernatant was discarded and the cells were washed 3 times. FITC-labeled goat anti-human Fc antibody (Abeam, ab97224) was diluted to 5 µg/mL with flow buffer and used to re-suspend the cells, incubated at room temperature for 30 min in the dark, centrifuged, and the supernatant was discarded. After washing 3 times, the cells were re-suspended with 7AAD solution (Biolegend, 420403), incubated for 10 min at room temperature, and the binding of the antibody was detected with a flow cytometer (BioRad, ZE5).

Experiment [2] addresses T2, human TrkB expressed on CHO cells (TrkB/CHO, ThermoFisher K1491) (human, UniProt Q16620 32-822).
T2 construct: whole, on cells
As to the kind of experiment: flow cytometry on TrkB/CHO cells, FITC goat anti-human Fc. The procedure:
as §1, §2
(A flow cytometer gives signals particle by particle.)

T2 sequence (Q16620 32-822): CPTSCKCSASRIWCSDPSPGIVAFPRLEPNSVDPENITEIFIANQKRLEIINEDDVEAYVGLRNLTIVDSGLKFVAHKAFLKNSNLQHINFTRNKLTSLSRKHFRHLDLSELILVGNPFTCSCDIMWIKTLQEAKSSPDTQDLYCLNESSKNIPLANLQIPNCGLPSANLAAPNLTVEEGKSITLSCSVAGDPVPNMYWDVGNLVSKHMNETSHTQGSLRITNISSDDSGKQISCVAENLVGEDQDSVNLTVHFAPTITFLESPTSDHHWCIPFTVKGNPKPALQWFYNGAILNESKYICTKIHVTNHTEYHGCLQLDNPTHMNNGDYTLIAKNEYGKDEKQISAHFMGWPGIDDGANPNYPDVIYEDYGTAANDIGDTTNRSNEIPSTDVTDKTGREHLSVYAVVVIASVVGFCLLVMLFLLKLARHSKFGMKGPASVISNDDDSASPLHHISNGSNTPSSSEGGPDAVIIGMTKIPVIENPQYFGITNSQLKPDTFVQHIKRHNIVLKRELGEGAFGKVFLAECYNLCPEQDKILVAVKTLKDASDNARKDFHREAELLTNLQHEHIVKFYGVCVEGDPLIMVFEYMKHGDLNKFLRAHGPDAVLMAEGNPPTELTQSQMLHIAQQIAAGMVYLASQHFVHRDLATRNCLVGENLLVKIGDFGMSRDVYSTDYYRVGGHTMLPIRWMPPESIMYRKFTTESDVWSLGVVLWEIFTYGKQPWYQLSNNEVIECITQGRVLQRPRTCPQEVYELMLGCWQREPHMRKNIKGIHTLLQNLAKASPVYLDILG
T1 sequence (Q16288 32-839): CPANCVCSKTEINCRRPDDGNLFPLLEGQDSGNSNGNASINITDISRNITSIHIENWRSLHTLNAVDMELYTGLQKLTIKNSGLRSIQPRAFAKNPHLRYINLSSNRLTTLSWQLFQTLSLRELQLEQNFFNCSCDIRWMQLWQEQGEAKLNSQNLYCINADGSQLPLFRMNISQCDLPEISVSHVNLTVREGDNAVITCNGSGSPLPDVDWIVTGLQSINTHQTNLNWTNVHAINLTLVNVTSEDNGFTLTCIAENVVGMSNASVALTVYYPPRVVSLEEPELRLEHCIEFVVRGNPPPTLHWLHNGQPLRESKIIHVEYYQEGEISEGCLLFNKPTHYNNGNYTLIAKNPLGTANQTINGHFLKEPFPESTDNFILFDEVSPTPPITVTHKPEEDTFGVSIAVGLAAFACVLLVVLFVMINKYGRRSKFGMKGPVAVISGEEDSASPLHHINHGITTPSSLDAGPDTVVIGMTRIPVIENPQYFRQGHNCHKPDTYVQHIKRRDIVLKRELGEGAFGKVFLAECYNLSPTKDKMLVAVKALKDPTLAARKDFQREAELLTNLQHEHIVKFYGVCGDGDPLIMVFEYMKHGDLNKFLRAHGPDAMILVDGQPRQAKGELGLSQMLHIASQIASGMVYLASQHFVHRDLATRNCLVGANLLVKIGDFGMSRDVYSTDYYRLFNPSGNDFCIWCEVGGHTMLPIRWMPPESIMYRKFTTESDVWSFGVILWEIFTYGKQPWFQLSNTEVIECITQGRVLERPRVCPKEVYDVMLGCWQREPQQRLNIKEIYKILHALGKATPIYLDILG

B1: humanized anti-TrkA antibody 42F5-15 (antibody, V domains shown)
VH: QVQLVQSGAEVKKPGASVKVSCKSSGYTFTNYWMHWVRQAPGQGLEWMGEIYPNNARVNYNEKFKNRVTMTVDISISTAYMELSRLRSDDTAVYYCARSRYDPMEDWGQGTTVTVSS
VL: DVQLTQSPSSLSASVGDRVTITCSASSSVGYMHWYQQKPGKAPKRLIYDTSKLASGVPSRFSGSGSGTDYTLTISSLQPEDFATYFCQQWSSIPLTFGQGTRLEIK
notes: 42F5-01 with NG55-56 of the VH mutated to NA55-56
Turning to B1, the binding result in experiment [1] and in experiment [2] was “no binding” each time.

These data come from patent US12590158 (XIYUAN ANJIAN MEDICINE SHANGHAI, dated 2026).
